Assay results from the DeepSol protein solubility set.

Assay: soluble on expression in E. coli; label from the status in PepcDB or PDB records

In the case of “MQNEKLDHESVTQAMQPKDTPELRALYKSFEEESIIPLWTQLGDLMPIHPKSKAVPHVWKWSTLLRLARKSGELVPVGRGGERRALGLANPGLGGNAYISPTMWAGIQYLGPRETAPEHRHSQNAFRFVVEGEGVWTVVNGDPVRMSRGDLLLTPGWCFHGHMNDTDQPMAWIDGLDIPFSQQMDVGFFEFGSDRVTDYATPNFSRGERLWCHPGLRPLSGLQNTVASPIGAYRWEFTDRALTEQLLLEDEGQPATVAPGHAAIRYVNPTTGGDVMPTLRCEFHRLRAGTETATRNEVGSTVFQVFEGAGAVVMNGETTKLEKGDMFVVPSWVPWSLQAETQFDLFRFSDAPIMEALSFMRTKIEGQK”, the “soluble on expression in E. coli” value is reported as “soluble”.
In the case of “MQDKYGVNHDHYCYESSDVLINLLNIRDPDELTQAEADFNLIRYSEYCSDLDELEDFDSNHFLNLHWVLFQDIYEWAGTIRDVDISKANTRFCTCSRVEPELNKAISRIPLIRFCRNKHELVALVADIFSDLNVVHPFREGNGRTTRFFFEELLHVAGYRIEWPVITKEEWVDANIHGYFGQLHKLEVIFDAAIIESLEHHHHHH”, the “soluble on expression in E. coli” value is reported as “not soluble”.
For “LGSPMAYFVENFWGEKNSGFDVLYHNMKHGQISTKELADFVRERATIEEAYSRSMTKLAKSASNYSQLGTFAPVWDVFKTSTEKLANCHLDLVRKLQELIKEVQKYGEEQVKSHKKTKEEVAGTLEAVQTIQSITQALQKSKENYNAKCVEQERLKKEGATQREIEKAAVKSKKATDTYKLYVEKYALAKADFEQKMTETAQKFQDIEETHLIHIKEIIGSLSNAIKEIHLQIGQVHEEFINNMANTTVESLIQKFAESKGTGKERPGLIEFEECD”, the “soluble on expression in E. coli” value was “soluble”.
In the case of “ESSFTYTLDEKVAELVEFLLLKYEAEEPVTEAEMLMIVIKYKDYFPVILKRAREFMELLFGLALIEVGPDHFCVFANTVGLTDEGSDDEGMPENSLLIIILSVIFIKGNCASEEVIWEVLNAVGVYAGREHFVYGEPRELLTKVWVQGHYLEYREVPHSSPPYYEFLWGPRAHSESIKKKVLEFLAKLNNTVPSSFPSWYKDALKDVEERVQATIDTADD”, the “soluble on expression in E. coli” value is reported as “soluble”.
For “MAVNGKTLIRRFNDYCPEWLAETGDPVGLHIGTLDKPIENVMVTLDVRPEVVAEAIEKQVDLIIAKHPPIFRPVKRLTTDNFQEKMYADLLKHDIAVYAAHTNMDIIDNGLNDWFCELLGIKQTTFLTKTHTVPYKKLAVFVPIDEAPQMREALGLAGAGSQGDYSKTSYSLIGTGRFTPTQGANPTIGEIGQESVVQEAKIEVIFPETKQEQVLAAMLQAHPYEEPAYDVYTIENQSKEFGLGRVGVLDKPVRFSYFVQQVKEAFQLDGLRVIAKDDTKMIQRVAICGGSGEKFYHDALRKQADVYITGDVYYHTAHDMIAEDLPVIDPGHYIEALCKPKLVELMNQWKQENEWAVSIFESEANTNPFRFK”, the “soluble on expression in E. coli” value was “not soluble”.
In the case of “MRYTILTKGDSKSNALKHKMINHMKDFQMVEDSENPEIVISVGGDGTLLQAFHQYSHMLSKVAFVGIHTGHLGFYADWLPHEVEKLIIEINNSEFQVIEYPLLELIVRYNDNGYETRYLALNEATMKTENGSTLVVDVNIRGKHFERFRGDGLCISTPSGSTAYNKALGGALIHPSLEAMQIAEIASINNRVFRTVGSPLVLPKHHTCLITPVNHDTIRTTIDHVSIKHKNVNAIQYRVANEKVRFARFRPFPFWKRVHDSFISSDDERMAGDPLEHHHHHH”, the “soluble on expression in E. coli” value is reported as “soluble”.
For “MGSDKIHHHHHHVHHRHHKKGIIHRDADEMIEFPKRSNDRLGETMIHGQIICHGTPLDYVRPYLSSKKYPRVIINICVSDDGGWYRLTTGNMFDLEGSVTFTVRHQCLMDKLPPMIQCAVPYYTTEVTIDLSSNTTYIGRSFELSKMEAYSSADCLY”, the “soluble on expression in E. coli” value was “not soluble”.
With “MKVGIIGASGYTGSELLRILANHPEAEVIAASSRRYEGQKIWKVHRFLKGFYDLEFCSPELSNFGDCDLVFTAVPHGEAMKYVPQLLDSGIKVVDISADYRLDKETYERVYGKKHEGYVEAVYGLTELHREEIKKANLVANPGCYPTGTILAASPLAKLELIERVVFDCKSGITGAGESPSAFTHYPNLHESIVPYKITEHRHYYEMVQELGRFQSDIKISFTPQVYPGSRGILTNAHVFLRGELTREELYRIYEEFYEDSFFVRIQESVSLSQVRGSNFCDISIHPGEDRVVVVSAIDNLVKGASGQAVQNMNLMMGFDETLGLRTPPLFP” the “soluble on expression in E. coli” value was “not soluble”.
For “MLNEREKILLKTLVERYIHEGQPVGSRSLAKFSGLDLSPATIRNVMTDLEEMGYVSSPHTSAGRMPTTLGYRFFVDTLLVVKSLDNEQITLLENQLHPNNPTHLMNVTSRLLSELTRFVGVVVTPKRMGGAVFRHIEFVALTEKRILLILVTPEGDVQNRIILTETAYSQSDLIEAGNFLNQHYAGCTLEEIRSGLQRELTQLRRDMTGLMNAAIEIGNDALQESSEAVVIAGEHRLFDVRDLSDNLSSLKSLFEMFERKSKLLQLMELSRQAHGVKIFIGGESDETMLEEVSVVTAPYEMEGKIVGTVGVIGPRRMAYERIIPIVDITAKLLSSNLS”, the “soluble on expression in E. coli” value was “not soluble”.
In the case of “MAGHSKWANTRHRKAAQDAKRGKIFTKIIRELVTAAKLGGGDPDANPRLRAAVDKALSNNMTRDTLNRAIARGVGGDDDANMETIIYEGYGPGGTAIMIECLSDNRNRTVAEVRHAFSKCGGNLGTDGSVAYLFSKKGVISFEKGDEDTIMEAALEAGAEDVVTYDDGAIDVYTAWEEMGKVRDALEAAGLKADSAEVSMIPSTKADMDAETAPKLMRLIDMLEDCDDVQEVYHNGEISDEVAATL”, the “soluble on expression in E. coli” value is reported as “soluble”.
For “MVENSELRKAGLKVTLPRVKILQMLDSAEQRHMSAEDVYKALMEAGEDVGLATVYRVLTQFEAAGLVVRHNFDGGHAVFELADSGHHDHMVCVDTGEVIEFMDAEIEKRQKEIVRERGFELVDHNLVLYVRKKK”, the “soluble on expression in E. coli” value was “not soluble”.
With “VDLGSKSSNSTCRLNVTELASIHPGETWTLHGMCISICYYENVTEDEIIGVAFTWQHNESVVDLWLYQNDTVIRNFSDITTNILQDGLKMRTVPVTKLYTSRMVTNLTVGRYDCLRCENGTTKIIERLYVRLGSLYPRPPGSGLAKHPSVSADEELSA” the “soluble on expression in E. coli” value was “soluble”.
In the case of “MNSFYSQEELKKIGFLSVGKNVLISKKASIYNPGVISVGNNVRIDDFCILSGKVTIGSYSHIAAYTALYGGEVGIEMYDFANISSRTIVYAAIDDFSGNALMGPTIPNQYKNVKTGKVILKKHVIIGAHSIIFPNVVIGEGVAVGAMSMVKESLDDWYIYVGVPVRKIKA”, the “soluble on expression in E. coli” value is reported as “soluble”.
For “LQELETAVAETGFSRFPVTGKDGSYLGYVHIKDVLDRFDHSSPDTIIHRSEIRPLIIVDAAGTMDEALQSMHSKSAHMAQVRDRGLLLGVITLEDLIEEYVGTFSDWTHEQS”, the “soluble on expression in E. coli” value was “not soluble”.
For “MGSDKIHHHHHHMEGNLKHNNGYCVICEKEATFIEHNDWLRDHYLCSTCHSIPRQRALIHVLNTFFPKWDSYHIHESSPGGITTQLLIKNCKNYTYSQYFKNYPLGQYFQGIRCENLENMTFQDESFDLFITQDVFEHVMEPNKAFKEIERVLKPGGAHVFTVPWYHTLPKTLQRARINEDGIEYIEEPIYHGNPIDENGSLVTFDWGQDMIEYIYTHANMYTLVYLQKDKSLGLDAEFLHVFISRKQENNF”, the “soluble on expression in E. coli” value was “not soluble”.
With “MIKGSCLCGDIRYTTEAAPQGASMCHCGQCRRQSGGVWSSAFVPEADLTITGPVSWFAASDTAKRGFCARCGSFLFWKANDEDTISFSLGSVDGPTGLRLTKHIFVAGKGDYYDIADDAPHKD” the “soluble on expression in E. coli” value was “not soluble”.
For “MAYVTWLLAILHVHKDSFEIAAPSDSYLSAEPGQDVTLTCQLPRTWPVQQVIWEKVQPHQVDILASCNLSQETRYTSKYLRQTRSNCSQGSMKSILIIPNAMAADSGLYRCRSEAITGKNKSFVIRLIITDGE”, the “soluble on expression in E. coli” value was “not soluble”.
For “SFLSEAGARPRAGEISASERRKWVEVFKACDEDNKGYLSREDFKVAIVMLFGYKPSKIEADAVMSSANPDTSGVSLEGFLNVVQRKKEAQLYRNEIRHIFTAFDVHYRGFLTLEDFKRAFSQVAPKLPSRTVLEVFREADQDSDGHVSFRDFEYAMNHGKAK”, the “soluble on expression in E. coli” value was “soluble”.
With “MDARPVHPAFQVFTDALRQRFGEALDAVVLYGSCLHTSDLTEGIADFYVLVSDYRLAYSGRLLAGLNAWLPPNVFYLEVPAAAGVMRAKYAVISTADFERGARQWFHPYIWARFAQPARLLYARDDQTGKRVHTAQASAVLKFISTTLPVLESGPSDLEMIWASGLMLTYAAELRAEREARARHLVRIDPEIYSRLTAAAMPALIPLLSLQADGRYHIGPITPLKRLSARIHWRLRRWQGRVLSVLRLSKATMTFRDCLDYAAWKIERHTGIKVEITPMLRRHPILWGYKVMWQLLRRGVLRLEHHHHHH” the “soluble on expression in E. coli” value was “soluble”.
In the case of “KLKDIAKKILVGGEKPSDFQKEKDQVYKYPILSNSRKADDFLGYSKTFRIAEKSITVSARGTIGAVFYRDFSYLPAVSLICFIPKPEFNINFLFHALKATKFHKQGSGTGQLTMAQFKEYQVYIPSLKKQQEIAATLDP”, the “soluble on expression in E. coli” value is reported as “soluble”.
With “MSEEKYNYLDMHLSRKGSIYDSLIHLKPDNENKFGLDENSDICRTLSNYADYSTKKVKYFVNKRFSEIENIEKNIEDIDYSAFKYFRTLPPKYSDENDIRNNIIFNNNNIYIYAENKNGTLNEQACISISPDNNIIYCSTKGRRYTIGGHAGIQKNLNNEYNFLDENNFISPQNSIKTYTYDALDSSDLSSSFPKMNLIKTNDVLDDTNTNRINTANIFNEHIIMNSCESSNLNTTKCLSKNLSVQKLFKYYKKCSQDLEHEQRICKPCAHVYNGSTCMNGDECSFCHHPDHVLISAKKWKKLVKNNMEKLNILLHILRNPDDVNANFLNEMIKQNTKNFKKNKKINNIKNNTIINMYNQNIRHSNSNNNTINDMNNNNINKRHNKNRIFYFPQRNTDNILRPPYNNYESNETTDMYKNNYQVRNCNFSPYHMNM” the “soluble on expression in E. coli” value was “not soluble”.
In the case of “MPLKGFEIIKSMITLLFLYQAIIRNFEEIVQFLGKIMGCGSSSPAEVAPAEIIEPSPSSDVPSDPKIPTSYRPSIISLQIPNEFGDDVSSDALSDRSDAQEENVDYLYATDVTLQWLLERIYDKFKKPIPEDPQWIIERLNRPSWDLDYATSSVVRVTFGWDDDELPRSVVLKTPVAKDQRDDEEGKYHYIMFKRECNVYEWTQKFPKLIAPKIIHIKKHSKEGSGVVVMEDVSEKGQEQDPVKGLMLEVVRDLLKQIAYLHSISLKHTSWSTLVADLPPSYYAHTIGSFDDTLTFFERQDVDHSRFVHIGKYFSDEYLHSTATETTELLDIPKVLVHGEPYASNVFTKMEGKEQRILSLIDWTEGHSGCFAEDVAKIICWNLNAKERVDNTSSLLEGYHFHLARYYDGDCPFTVDIIQRAYEVFVPFAMVSLCGKVMSVKNKTEKEPLIERAKSLIQQVYAMERLNES”, the “soluble on expression in E. coli” value is reported as “not soluble”.
With “MLRAKVRRIALANQKGGVGKTTTAINLAAYLARLGKRVLLVDLDPQGNATSGLGVRAERGVYHLLQGEPLEGLVHPVDGFHLLPATPDLVGATVELAGAPTALREALRDEGYDLVLLDAPPSLSPLTLNALAAAEGVVVPVQAEYYALEGVAGLLATLEEVRAGLNPRLRLLGILVTMYDGRTLLAQQVEAQLRAHFGEKVFWTVIPRNVRLAEAPSFGKTIAQHAPTSPGAHAYRRLAEEVMARVQEAGSHHHHHH” the “soluble on expression in E. coli” value was “soluble”.
In the case of “MAHHHHHHSLSLKGFVKVERRMADRTIKMLQSRGYFDSDYEIRHEGDYVLIPVKDGFTGPVVVKDAEKKPKVIPASGSFDIIGTIAITKKDDVEFAKEILKTHKNIKSVYLDKGVKGKERIRDLVLLAGIDSTVALYRENGCIFKIDVSKSYFSPRLATERRRLVDSILDGEFIVDMFAGSGPISIEVAKKRRVKIISIDINCAAIESLQESMRLNSLLGTITPICGDARQLIKDIHDADRIIMNHPTDAFSFLPCALEALKYGGHINYYEILNKDDVTKRLADFNFMRLKVFSYHRVHSYSKLSDLISFDLIREGEG”, the “soluble on expression in E. coli” value is reported as “soluble”.
